Measurements as given in IntAct's records for PubMed 16767699.

B1: Septin-11 (Homo sapiens), Q9NVA2 (parent)
chain: MAVAVGRPSNEELRNLSLSGHVGFDSLPDQLVNKSTSQGFCFNILCVGETGIGKSTLMDTLFNTKFESDPATHNEPGVRLKARSYELQESNVRLKLTIVDTVGFGDQINKDDSYKPIVEYIDAQFEAYLQEELKIKRSLFNYHDTRIHACLYFIAPTGHSLKSLDLVTMKKLDSKVNIIPIIAKADTIAKNELHKFKSKIMSELVSNGVQIYQFPTDEETVAEINATMSVHLPFAVVGSTEEVKIGNKMAKARQYPWGVVQVENENHCDFVKLREMLIRVNMEDLREQTHTRHYELYRRCKLEEMGFKDTDPDSKPFSLQETYEAKRNEFLGELQKKEEEMRQMFVMRVKEKEAELKEAEKELHEKFDLLKRTHQEEKKKVEDKKKELEEEVNNFQKKKAAAQLLQSQAQQSGAQQTKKDKDKKNASFT
partner: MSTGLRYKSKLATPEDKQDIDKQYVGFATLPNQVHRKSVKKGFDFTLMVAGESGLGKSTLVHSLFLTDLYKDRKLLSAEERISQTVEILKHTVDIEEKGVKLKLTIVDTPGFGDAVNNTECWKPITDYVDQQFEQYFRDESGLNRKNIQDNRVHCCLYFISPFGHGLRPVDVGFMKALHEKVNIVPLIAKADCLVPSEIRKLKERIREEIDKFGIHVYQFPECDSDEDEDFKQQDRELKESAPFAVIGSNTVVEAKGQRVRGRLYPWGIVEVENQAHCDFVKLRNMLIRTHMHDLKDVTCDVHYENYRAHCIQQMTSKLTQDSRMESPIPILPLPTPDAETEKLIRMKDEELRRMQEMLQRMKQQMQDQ

Variants of: B1
Details: with sept5_human SEPTIN5, Q99719

Variant | effect of a mutation on the interaction
S55N | disrupting interaction
